The target of experiment [1] is T1, M. tuberculosis MmpL5 Δ494-688 with C-terminal GFP-FLAG tag (M. tuberculosis, UniProt P9WJV1 1-964, Δ494-688).
T1 construct: also called MmpL5ΔCC; MmpL5 ΔCC
The experiment can be described thus: co-purification (anti-FLAG affinity, then SEC). The note with it: partners not purified.

Experiment [2] concerns the target T1, M. tuberculosis MmpL5 Δ494-688 with …. The experiment can be described thus: cryo-EM structure. Conditions: both partners purified.

B1: M. tuberculosis MmpS5 (natural protein)
chain: MIGTLKRAWIPLLILVVVAIAGFTVQRIRTFFGSEGILVTPKVFADDPEPFDPKVVEYEVSGSGSYVNINYLDLDAKPQRIDGAALPWSLTLKTTAPSAAPNILAQGDGTSITCRITVDGEVKDERTATGVDALTYCFVKSA
Turning to B1, the binding result in experiment [1] is reported as “binds”.

B2: M. smegmatis acyl carrier protein AcpM (MSMEG_4326) (natural protein)
chain: MAATQEEIIAGLAEIIEEVTGIEPSEVTPEKSFVDDLDIDSLSMVEIAVQTEDKYGVKIPDEDLAGLRTVGDVVAYIQKLEEENPEAAAALREKFAADQ
Consider B2, for which the binding result in experiment [2] is listed as “binds”.

The values above are taken from article doi:10.1101/2025.06.24.661325, “Structural and functional analysis of the Mycobacterium tuberculosis MmpS5L5 efflux pump presages a pathway to increased bedaquiline resistance” (bioRxiv, 2025).
